Measured values published in US20250297004A1, “NECTIN-4 BINDING AGENTS” (INNATE PHARMA, priority 2022, published 2025).
Changes are numbered by the printed parent chain. Blank lines part the entries; values can stand above or below the molecule they belong to.

Assays:
[1] = biological target: T1, human Nectin-4 expressed on cells (human, UniProt Q96NY8 32-510); assay: flow cytometry on SUM190 cells, MedFI at saturation
T1 construct: On SUM190, SUM185, MDA-MB-468 cells (endogenous) or transfected cells; 31-residue signal peptide left out; also called huN4; wild-type human Nectin-4
T1 sequence: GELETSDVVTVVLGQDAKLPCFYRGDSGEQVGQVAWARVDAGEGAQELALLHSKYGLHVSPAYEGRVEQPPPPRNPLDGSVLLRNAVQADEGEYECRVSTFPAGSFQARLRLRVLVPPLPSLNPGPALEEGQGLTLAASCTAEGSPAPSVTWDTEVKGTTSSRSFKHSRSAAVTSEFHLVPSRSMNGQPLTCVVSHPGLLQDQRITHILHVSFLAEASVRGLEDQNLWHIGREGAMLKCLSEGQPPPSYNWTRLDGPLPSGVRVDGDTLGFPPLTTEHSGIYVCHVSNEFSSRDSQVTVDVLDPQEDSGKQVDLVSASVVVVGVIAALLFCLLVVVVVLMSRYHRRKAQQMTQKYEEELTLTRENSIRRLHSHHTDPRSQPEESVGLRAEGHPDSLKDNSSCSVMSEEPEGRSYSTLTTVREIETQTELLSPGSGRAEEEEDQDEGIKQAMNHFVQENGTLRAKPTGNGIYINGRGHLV
Protocol: The humanized antibodies in Table 3 of Example 3 and in Table 6 of Example 5 were cloned, produced and purified, then tested for binding to Nectin-4 expressing cells by flow cytometry. Binding of humanized variants in human IgG1 format was determined on the SUM190 cell line expressing high levels of Nectin-4.

[2] = biological target: T1, human Nectin-4 expressed on cells; assay: cell-based or functional assay
[3] = biological target: T1, human Nectin-4 expressed on cells; assay: cell-based or functional assay; remark: listed apart in the source
[4] = biological target: T2, human Nectin-4 (Homo sapiens, UniProt Q96NY8); assay: Binding to human Nectin-4 by SPR; settings: for ka: SPR association constant; for kd: SPR dissociation constant; for Kd: SPR, human IgG1 isotype antibodies
T2 sequence (Q96NY8 32-510): T1 sequence
Protocol: (§1) The antibodies in Table 3 of Example 3 were cloned as human IgG1 isotype antibodies, produced and purified, then tested for binding to human Nectin-4. Affinity of the 16 humanized variants, as well as their association and dissociation constants were assessed by SPR analysis. Table 4 summarizes all the calculated constants (Affinity constant KD (nM), association constant ka (1/Ms) and dissociation constant kd (1/s)).
as §1, with “Table 6” for “Table 3”, “Example 5” for “Example 3”, “Table 7” for “Table 4”

[5] = biological target: human Nectin-4 (protein used in the SPR affinity measurements) (human) (UniProt Q96NY8); assay: SPR, human IgG1

B1: H4L1 (antibody, human IgG1, V domains shown)
VH: QVQLVQSGAEVKKPGASVKVSCKASGYIFTSYWMHWVKQAPGQGLEWMGEIDPSDSYTNYNQKFKGRVTMTLDKSTSTTYMELSSLRSEDTAVYYCARGYGNYGDYWGQGTLVTVSS
VL: DVVMTQSPLSLPVTPGEPASISCRSSKSLLHSNGITYLYWYLQKPGQSPQLLIYQMSNLASGVPDRFSSSGSGTDFTLKISRVEAEDVGVYYCAQNLELPWTFGGGTKVEIK
notes: human IgG1 isotype
- Max MedFi [1]: 18400 MedFI
- internalization efficiency on MDA-MB-468, normalized to chimeric parental antibody (Fab-ZAP, CTG), first column [2]: 31 % of chimeric parental
- internalization efficiency on MDA-MB-468, normalized to chimeric parental antibody (Fab-ZAP, CTG), second column [2]: 31 % of chimeric parental
- internalization efficiency on SUM190, normalized to chimeric parental antibody (Fab-ZAP, CTG), experiment 1 [3]: 73.5 % of chimeric parental
- internalization efficiency on SUM190, normalized to chimeric parental antibody (Fab-ZAP, CTG), experiment 2 [3]: 72.6 % of chimeric parental
- ka ([4]; second set (Table 7)): 310000 ± 30000 M⁻¹ s⁻¹
- kd ([4]; second set (Table 7)): 0.0059 ± 0.0003 s⁻¹
- Kd ([4]; second set (Table 7)): 19.5 ± 0.8 nM
- Kd [5]: 19.5 nM
- koff [5]: 0.0059 s⁻¹
- kon [5]: 310000 M⁻¹ s⁻¹

B3: H4L2 (antibody, human IgG1, V domains shown)
VH: B1 VH
VL: B1 VL with L11N
notes: human IgG1 isotype
- Max MedFi [1]: 24400 MedFI
- internalization efficiency on MDA-MB-468, normalized to chimeric parental antibody (Fab-ZAP, CTG), first column [2]: 64.2 % of chimeric parental
- internalization efficiency on MDA-MB-468, normalized to chimeric parental antibody (Fab-ZAP, CTG), second column [2]: 64.2 % of chimeric parental
- internalization efficiency on SUM190, normalized to chimeric parental antibody (Fab-ZAP, CTG), experiment 1 [3]: 83.6 % of chimeric parental
- internalization efficiency on SUM190, normalized to chimeric parental antibody (Fab-ZAP, CTG), experiment 2 [3]: 67.6 % of chimeric parental
- ka ([4]; second set (Table 7)): 200000 M⁻¹ s⁻¹
- kd ([4]; second set (Table 7)): 0.0054 s⁻¹
- Kd ([4]; second set (Table 7)): 26.8 nM
- Kd [5]: 26.8 nM
- koff [5]: 0.0054 s⁻¹
- kon [5]: 200000 M⁻¹ s⁻¹

B4: H4L3 (antibody, human IgG1, V domains shown)
VH: B1 VH
VL: B1 VL with P8A, L11N
notes: human IgG1 isotype
- Max MedFi [1]: 24800 MedFI
- internalization efficiency on MDA-MB-468, normalized to chimeric parental antibody (Fab-ZAP, CTG), first column [2]: 43.8 % of chimeric parental
- internalization efficiency on MDA-MB-468, normalized to chimeric parental antibody (Fab-ZAP, CTG), second column [2]: 43.8 % of chimeric parental
- internalization efficiency on SUM190, normalized to chimeric parental antibody (Fab-ZAP, CTG), experiment 1 [3]: 81.9 % of chimeric parental
- internalization efficiency on SUM190, normalized to chimeric parental antibody (Fab-ZAP, CTG), experiment 2 [3]: 61 % of chimeric parental
- ka ([4]; second set (Table 7)): 250000 ± 30000 M⁻¹ s⁻¹
- kd ([4]; second set (Table 7)): 0.0052 ± 0.0002 s⁻¹
- Kd ([4]; second set (Table 7)): 21.6 ± 1.1 nM
- Kd [5]: 21.6 nM
- koff [5]: 0.0052 s⁻¹
- kon [5]: 250000 M⁻¹ s⁻¹

B5: H3L3 (antibody, human IgG1, V domains shown)
VH: B1 VH with K38R
VL: B1 VL with P8A, L11N
notes: human IgG1 isotype
- Max MedFi [1]: 23800 MedFI
- internalization efficiency on MDA-MB-468, normalized to chimeric parental antibody (Fab-ZAP, CTG), first column [2]: 43.8 % of chimeric parental
- internalization efficiency on MDA-MB-468, normalized to chimeric parental antibody (Fab-ZAP, CTG), second column [2]: 43.8 % of chimeric parental
- internalization efficiency on SUM190, normalized to chimeric parental antibody (Fab-ZAP, CTG), experiment 1 [3]: 65.3 % of chimeric parental
- internalization efficiency on SUM190, normalized to chimeric parental antibody (Fab-ZAP, CTG), experiment 2 [3]: 59.6 % of chimeric parental
- ka ([4]; first set (Table 4)): 260000 M⁻¹ s⁻¹
- kd ([4]; first set (Table 4)): 0.007 s⁻¹
- Kd ([4]; first set (Table 4)): 27 nM
- Kd [5]: 27 nM
- koff [5]: 0.007 s⁻¹
- kon [5]: 260000 M⁻¹ s⁻¹

Now from value to molecule:

- Max MedFi [1]: 27100 MedFI
- internalization efficiency on MDA-MB-468, normalized to chimeric parental antibody (Fab-ZAP, CTG), first column [2]: 87.8 % of chimeric parental
- internalization efficiency on MDA-MB-468, normalized to chimeric parental antibody (Fab-ZAP, CTG), second column [2]: 87.8 % of chimeric parental
- internalization efficiency on SUM190, normalized to chimeric parental antibody (Fab-ZAP, CTG), experiment 1 [3]: 82.8 % of chimeric parental
- internalization efficiency on SUM190, normalized to chimeric parental antibody (Fab-ZAP, CTG), experiment 2 [3]: 74.9 % of chimeric parental
- Kd [5]: 21.5 nM
- koff [5]: 0.0053 s⁻¹
- kon [5]: 250000 M⁻¹ s⁻¹
B2: H5L3 (antibody, human IgG1, kappa, V domains shown)
VH: B1 VH with A40R
VL: DVVMTQSALSNPVTPGEPASISCRSSKSLLHSNGITYLYWYLQKPGQSPQLLIYQMSNLASGVPDRFSSSGSGTDFTLKISRVEAEDVGVYYCAQNLELPWTFGGGTKVEIKR
notes: Tested as human IgG1

- Max MedFi [1]: 18300 MedFI
- internalization efficiency on MDA-MB-468, normalized to chimeric parental antibody (Fab-ZAP, CTG), first column [2]: 33.4 % of chimeric parental
- internalization efficiency on MDA-MB-468, normalized to chimeric parental antibody (Fab-ZAP, CTG), second column [2]: 33.4 % of chimeric parental
- internalization efficiency on SUM190, normalized to chimeric parental antibody (Fab-ZAP, CTG), experiment 1 [3]: 71.5 % of chimeric parental
- internalization efficiency on SUM190, normalized to chimeric parental antibody (Fab-ZAP, CTG), experiment 2 [3]: 52.4 % of chimeric parental
- ka ([4]; second set (Table 7)): 230000 M⁻¹ s⁻¹
- kd ([4]; second set (Table 7)): 0.0056 s⁻¹
- Kd ([4]; second set (Table 7)): 24.5 nM
- Kd [5]: 24.5 nM
- koff [5]: 0.0056 s⁻¹
- kon [5]: 230000 M⁻¹ s⁻¹
B6: H5L1 (antibody, human IgG1, V domains shown)
VH: B1 VH with A40R
VL: B1 VL
notes: human IgG1 isotype
